Reference: patent US7361741

Molecular target: enzyme recognising antibody fragments

B1: Human Gastric Lipase (protein)
chain: LFGKLHPGSPEVTMNISQMITYWGYPNEEYEVVTEDGYILEVNRIPYGKKNSGNTGQRPVVFLQHGLLASATNWISNLPNNSLAFILADAGYDVWLGNSRGNTWARRNLYYSPDSVEFWAFSFDEMAKYDLPATIDFIVKKTGQKQLHYVGHSQGTTIGFIAFSTNPSLAKRIKTFYALAPVATVKYTKSLINKLRFVPQSLFKFIFGDKIFYPHNFFDQFLATEVCSREMLNLLCSNALFIICGFDSKNFNTSRLDVYLSHNPAGTSVQNMFHWTQAVKSGKFQAYDWGSPVQNRMHYDQSQPPYYNVTAMNVPIAVWNGGKDLLADPQDVGLLLPKLPNLIYHKEIPFYNHLDFIWAMDAPQEVYNDIVSMISEDKK
  enzyme activity assay (DGGR substrate): Approximately 30 to 60% of the enzyme recognising antibody fragments showed to inhibit the enzyme
